Data published in patent US20250340655A1, “EPHA2-TARGETING ANTIBODIES AND THEIR APPLICATIONS IN CANCER TREATMENT” (TAIPEI MEDICAL UNIVERSITY, priority 2022, published 2025).

Experiments:
Assay in all cases: flow cytometry on 293T cells overexpressing EphA1-A8
[1] = biological target: T1, EphA3 overexpressed on 293T cells (UniProt P29320 21-983, limits assumed)
T1 construct: whole, on cells
T1 sequence (looked up): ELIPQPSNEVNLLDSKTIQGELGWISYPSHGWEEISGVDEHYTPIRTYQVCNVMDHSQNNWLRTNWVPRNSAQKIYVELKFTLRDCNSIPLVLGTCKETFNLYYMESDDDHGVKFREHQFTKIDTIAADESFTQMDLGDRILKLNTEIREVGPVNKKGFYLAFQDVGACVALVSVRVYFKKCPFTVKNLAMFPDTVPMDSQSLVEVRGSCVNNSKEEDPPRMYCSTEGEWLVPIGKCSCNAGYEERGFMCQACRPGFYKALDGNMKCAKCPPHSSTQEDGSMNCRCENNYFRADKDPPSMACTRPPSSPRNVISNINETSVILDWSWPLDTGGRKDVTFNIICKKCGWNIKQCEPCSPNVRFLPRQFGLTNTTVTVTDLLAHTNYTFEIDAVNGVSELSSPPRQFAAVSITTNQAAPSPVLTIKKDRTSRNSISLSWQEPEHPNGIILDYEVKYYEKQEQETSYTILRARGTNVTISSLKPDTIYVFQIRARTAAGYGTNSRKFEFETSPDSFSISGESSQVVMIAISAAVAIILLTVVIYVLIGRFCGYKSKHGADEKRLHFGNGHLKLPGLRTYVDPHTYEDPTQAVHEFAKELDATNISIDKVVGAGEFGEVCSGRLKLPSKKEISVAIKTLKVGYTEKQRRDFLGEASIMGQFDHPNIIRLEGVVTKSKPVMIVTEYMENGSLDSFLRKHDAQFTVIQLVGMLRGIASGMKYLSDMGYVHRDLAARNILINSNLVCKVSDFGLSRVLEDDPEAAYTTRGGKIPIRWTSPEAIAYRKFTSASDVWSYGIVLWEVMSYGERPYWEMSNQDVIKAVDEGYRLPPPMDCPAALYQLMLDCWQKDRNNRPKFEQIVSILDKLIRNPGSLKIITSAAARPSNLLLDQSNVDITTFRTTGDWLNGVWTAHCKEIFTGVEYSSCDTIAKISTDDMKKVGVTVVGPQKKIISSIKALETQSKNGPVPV
Method: (§1) To detect the binding specificity of scFv, 293T cells were transformed with EphA1-A8 plasmids individually for overexpression of different EphA molecules. The cell line was freshly prepared and washed with FACS buffer (2% FBS in PBS). The cells were seeded at 1×10⁵ cells/well into a 96-well Ubottom plate and incubated with scFv for 1 h at 4° C. After the plate was washed with FACS buffer, the anti-hemagglutinin (HA) antibody was added for scFv binding detection (scFv was fused with a HA tag) and subsequently developed using an FITC-conjugated secondary antibody. Finally, the cell binding signal was analyzed using a FACS can flow cytometer.

[2] = biological target: T2, EphA4 overexpressed on 293T cells (UniProt P54764 20-986, limits assumed)
T2 construct: whole, on cells
T2 sequence (P54764 20-986 limits assumed): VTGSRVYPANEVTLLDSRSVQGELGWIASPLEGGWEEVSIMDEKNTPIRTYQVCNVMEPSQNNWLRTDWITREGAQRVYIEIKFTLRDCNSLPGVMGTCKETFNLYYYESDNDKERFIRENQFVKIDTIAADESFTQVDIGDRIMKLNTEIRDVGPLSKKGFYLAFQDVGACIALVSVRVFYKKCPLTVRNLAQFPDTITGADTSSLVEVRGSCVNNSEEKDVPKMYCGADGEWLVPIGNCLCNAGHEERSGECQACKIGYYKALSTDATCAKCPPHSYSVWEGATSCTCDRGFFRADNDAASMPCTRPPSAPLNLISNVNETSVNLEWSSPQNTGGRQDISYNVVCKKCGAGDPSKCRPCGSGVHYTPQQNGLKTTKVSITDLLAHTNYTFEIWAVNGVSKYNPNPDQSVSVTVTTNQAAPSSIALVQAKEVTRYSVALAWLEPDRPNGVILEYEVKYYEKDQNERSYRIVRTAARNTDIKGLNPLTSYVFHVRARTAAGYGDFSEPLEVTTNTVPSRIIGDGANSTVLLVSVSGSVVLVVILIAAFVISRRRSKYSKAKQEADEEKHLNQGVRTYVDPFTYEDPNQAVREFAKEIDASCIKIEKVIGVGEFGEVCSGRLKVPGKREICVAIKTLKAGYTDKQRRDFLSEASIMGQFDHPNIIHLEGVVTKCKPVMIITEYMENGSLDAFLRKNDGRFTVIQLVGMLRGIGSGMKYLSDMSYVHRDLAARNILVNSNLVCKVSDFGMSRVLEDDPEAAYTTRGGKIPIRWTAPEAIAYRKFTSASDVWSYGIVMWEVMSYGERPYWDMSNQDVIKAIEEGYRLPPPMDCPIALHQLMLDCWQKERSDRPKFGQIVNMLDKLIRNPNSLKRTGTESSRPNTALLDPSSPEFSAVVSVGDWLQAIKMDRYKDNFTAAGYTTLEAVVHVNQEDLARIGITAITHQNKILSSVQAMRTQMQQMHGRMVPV
Method: as §1

[3] = biological target: T3, EphA5 overexpressed on 293T cells (UniProt P54756 25-1037, limits assumed)
T3 construct: whole, on cells
T3 sequence (P54756 25-1037 limits assumed): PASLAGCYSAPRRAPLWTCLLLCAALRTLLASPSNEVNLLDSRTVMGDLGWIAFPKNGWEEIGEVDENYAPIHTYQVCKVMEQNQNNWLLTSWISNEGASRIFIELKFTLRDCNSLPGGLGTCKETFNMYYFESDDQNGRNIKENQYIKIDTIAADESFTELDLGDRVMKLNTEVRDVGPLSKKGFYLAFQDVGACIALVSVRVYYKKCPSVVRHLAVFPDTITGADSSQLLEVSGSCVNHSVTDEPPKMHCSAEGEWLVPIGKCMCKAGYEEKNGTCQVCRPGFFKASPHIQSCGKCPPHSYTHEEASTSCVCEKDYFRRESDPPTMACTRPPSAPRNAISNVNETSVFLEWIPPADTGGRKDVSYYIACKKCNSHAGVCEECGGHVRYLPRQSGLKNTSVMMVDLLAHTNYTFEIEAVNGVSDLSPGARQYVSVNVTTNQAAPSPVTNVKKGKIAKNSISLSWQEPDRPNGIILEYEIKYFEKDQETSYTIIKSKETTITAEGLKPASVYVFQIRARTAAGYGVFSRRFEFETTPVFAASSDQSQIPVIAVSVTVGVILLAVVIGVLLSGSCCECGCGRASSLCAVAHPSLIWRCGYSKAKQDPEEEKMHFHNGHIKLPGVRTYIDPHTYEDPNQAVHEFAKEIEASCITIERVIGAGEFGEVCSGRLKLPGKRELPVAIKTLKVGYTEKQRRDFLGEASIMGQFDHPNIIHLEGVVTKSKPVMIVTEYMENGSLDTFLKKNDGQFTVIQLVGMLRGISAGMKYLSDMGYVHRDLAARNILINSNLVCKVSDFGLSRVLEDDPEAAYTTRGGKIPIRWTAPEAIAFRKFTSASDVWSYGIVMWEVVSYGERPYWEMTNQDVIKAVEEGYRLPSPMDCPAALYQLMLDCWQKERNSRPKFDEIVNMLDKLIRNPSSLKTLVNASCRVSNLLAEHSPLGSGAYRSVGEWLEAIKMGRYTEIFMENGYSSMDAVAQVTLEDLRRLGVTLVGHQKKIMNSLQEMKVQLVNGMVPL
Method: as §1

[4] = biological target: T4, EphA7 overexpressed on 293T cells (UniProt Q15375 28-998, limits assumed)
T4 construct: whole, on cells
T4 sequence (Q15375 28-998 limits assumed): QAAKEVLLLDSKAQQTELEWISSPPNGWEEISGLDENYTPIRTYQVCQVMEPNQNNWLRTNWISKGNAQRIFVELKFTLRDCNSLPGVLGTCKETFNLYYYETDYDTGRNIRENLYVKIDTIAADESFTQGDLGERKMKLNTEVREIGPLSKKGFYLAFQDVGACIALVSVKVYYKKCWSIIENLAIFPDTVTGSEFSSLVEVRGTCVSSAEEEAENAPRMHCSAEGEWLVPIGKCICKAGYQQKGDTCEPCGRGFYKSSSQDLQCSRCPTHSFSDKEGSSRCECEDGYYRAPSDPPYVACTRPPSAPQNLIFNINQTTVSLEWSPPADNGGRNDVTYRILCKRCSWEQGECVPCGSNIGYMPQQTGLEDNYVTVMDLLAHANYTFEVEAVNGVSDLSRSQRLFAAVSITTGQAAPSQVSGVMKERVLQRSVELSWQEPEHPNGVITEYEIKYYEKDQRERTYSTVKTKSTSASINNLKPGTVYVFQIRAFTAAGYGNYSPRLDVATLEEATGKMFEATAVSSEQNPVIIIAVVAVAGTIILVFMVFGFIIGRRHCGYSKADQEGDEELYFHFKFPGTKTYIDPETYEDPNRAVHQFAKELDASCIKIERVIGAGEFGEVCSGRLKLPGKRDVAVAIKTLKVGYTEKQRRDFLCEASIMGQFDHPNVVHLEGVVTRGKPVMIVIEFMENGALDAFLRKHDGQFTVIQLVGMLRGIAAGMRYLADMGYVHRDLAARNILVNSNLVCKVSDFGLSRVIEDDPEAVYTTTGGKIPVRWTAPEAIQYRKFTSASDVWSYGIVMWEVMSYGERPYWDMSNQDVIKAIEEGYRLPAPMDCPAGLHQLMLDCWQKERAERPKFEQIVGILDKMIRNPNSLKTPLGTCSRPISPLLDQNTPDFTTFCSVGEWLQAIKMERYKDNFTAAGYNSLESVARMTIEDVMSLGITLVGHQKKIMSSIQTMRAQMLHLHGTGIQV
Method: as §1

[5] = biological target: T5, EphA8 overexpressed on 293T cells (UniProt P29322 28-1005, limits assumed)
T5 construct: whole, on cells
T5 sequence (looked up): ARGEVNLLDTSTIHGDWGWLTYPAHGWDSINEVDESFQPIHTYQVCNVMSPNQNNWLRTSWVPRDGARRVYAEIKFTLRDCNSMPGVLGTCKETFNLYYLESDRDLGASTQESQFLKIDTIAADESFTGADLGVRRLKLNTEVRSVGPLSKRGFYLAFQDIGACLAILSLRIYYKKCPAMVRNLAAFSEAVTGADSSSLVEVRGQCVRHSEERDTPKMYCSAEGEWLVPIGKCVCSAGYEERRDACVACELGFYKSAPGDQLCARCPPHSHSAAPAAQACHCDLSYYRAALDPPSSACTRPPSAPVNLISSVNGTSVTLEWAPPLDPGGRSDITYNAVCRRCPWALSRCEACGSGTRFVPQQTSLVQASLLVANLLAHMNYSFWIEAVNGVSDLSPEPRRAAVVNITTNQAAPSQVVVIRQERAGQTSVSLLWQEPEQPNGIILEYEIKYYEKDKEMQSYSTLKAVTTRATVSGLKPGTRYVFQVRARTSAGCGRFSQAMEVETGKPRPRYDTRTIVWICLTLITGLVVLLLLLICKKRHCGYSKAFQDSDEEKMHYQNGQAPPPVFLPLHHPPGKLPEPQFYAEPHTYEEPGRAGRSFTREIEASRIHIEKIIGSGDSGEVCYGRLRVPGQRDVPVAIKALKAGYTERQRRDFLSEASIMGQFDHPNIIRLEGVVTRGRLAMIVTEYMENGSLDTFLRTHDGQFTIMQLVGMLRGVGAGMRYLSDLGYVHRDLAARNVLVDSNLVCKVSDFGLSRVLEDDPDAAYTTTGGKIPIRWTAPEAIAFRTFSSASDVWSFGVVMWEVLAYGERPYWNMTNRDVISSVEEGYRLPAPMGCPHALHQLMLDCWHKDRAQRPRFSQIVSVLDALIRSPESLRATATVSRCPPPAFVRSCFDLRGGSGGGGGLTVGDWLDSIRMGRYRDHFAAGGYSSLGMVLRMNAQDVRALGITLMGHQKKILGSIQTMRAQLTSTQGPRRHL
Method: as §1

Measured: binding result

B1: Humanized scFv hSD5 (scFv)
scFv: LTQPPSVSVSPGQTVRITCSGSSGSYGWYQQKSPGQAPVTLIYDNDKRPSGIPERFSGSSSGSTSTLTISGVQAEDEADYYCGSADSSTYVGMFGGGTKLTVLGQSSRSSQVQLVESGGGLVQPGGSLRLSCAASGFTFSDYGMGWVRQAPGKGLEWVAGISAAGSFTPYGAAVKGRFTISRDNSKNTVYLQMNSLRAEDTAVYYCARIPSGYRAGEIYTWGQGTLVTVSS
notes: also called hSD5 scFv; Humanized scFv hSDS
no binding: all assays above
